Values of other authors in paper PMC3772054.

How the values were obtained:
IL-2Rα (Homo sapiens) = IL-2Rα (Homo sapiens) (UniProt P01589)
IL-15Rα (Homo sapiens) = IL-15Rα (Homo sapiens) (UniProt Q13261)
UniProt Q13261, sequence (Q13261 31-205): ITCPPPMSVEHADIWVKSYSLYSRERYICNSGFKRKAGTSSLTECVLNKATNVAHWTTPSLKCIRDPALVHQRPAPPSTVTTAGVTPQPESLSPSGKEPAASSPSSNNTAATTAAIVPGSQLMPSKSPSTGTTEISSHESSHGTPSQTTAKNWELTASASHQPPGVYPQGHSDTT

UniProt P01589, sequence (P01589 22-240): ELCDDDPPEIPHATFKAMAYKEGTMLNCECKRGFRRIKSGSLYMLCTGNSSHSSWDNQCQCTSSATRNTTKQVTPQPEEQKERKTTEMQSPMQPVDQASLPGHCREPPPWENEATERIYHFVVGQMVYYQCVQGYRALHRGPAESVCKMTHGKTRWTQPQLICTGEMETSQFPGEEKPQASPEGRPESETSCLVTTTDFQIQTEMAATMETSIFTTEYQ

Row | Kd (IL-2Rα (Homo sapiens)) [nM] | Kd (IL-15Rα (Homo sapiens)) [nM] | Substance
1 | 4.8 | – | IL-2 (from UniProt P60568)
2 | – | 0.038 | IL-15 (from UniProt P40933)
